Legend:
[1] = target: full-length SARS-COV-2 spike protein (amino acids M1-T1273 of NCBI accession number YP_009724390.1) (SARS-CoV-2) (UniProt P0DTC2); assay: cell-based or functional assay
[2] = target: MOD10-SARS-CoV-2 Spike Protein (RBD)(R319-F541).mmH (SARS-CoV-2); assay: Luminex bead binding, antibody supernatant
[3] = target: MOD8-SARS-CoV-2 Spike Protein (RBD)(R319-F541).mmH (SARS-CoV-2); assay: Luminex bead binding, antibody supernatant
[4] = target: MOD2-SARS-CoV-2 Spike Protein (RBD)(R319-F541).mmH (SARS-CoV-2); assay: Luminex bead binding, antibody supernatant
[5] = target: MOD15-SARS-CoV-2 Spike Protein (RBD)(R319-F541).mmH (SARS-CoV-2); assay: Luminex bead binding, antibody supernatant
[6] = target: MOD13-SARS-CoV-2 Spike Protein (RBD)(R319-F541).mmH (SARS-CoV-2); assay: Luminex bead binding, antibody supernatant
[7] = target: MOD12-SARS-CoV-2 Spike Protein (RBD)(R319-F541).mmH (SARS-CoV-2); assay: Luminex bead binding, antibody supernatant
[8] = target: MOD11-SARS-CoV-2 Spike Protein (RBD)(R319-F541).mmH (SARS-CoV-2); assay: Luminex bead binding, antibody supernatant
[9] = target: MOD1-SARS-CoV-2 Spike Protein (RBD)(R319-F541).mmH (SARS-CoV-2); assay: Luminex bead binding, antibody supernatant
[10] = target: MOD6-SARS-CoV-2 Spike Protein (RBD)(R319-F541).mmH (SARS-CoV-2); assay: Luminex bead binding, antibody supernatant
[11] = target: MOD7-SARS-CoV-2 Spike Protein (RBD)(R319-F541).mmH (SARS-CoV-2); assay: Luminex bead binding, antibody supernatant
[12] = target: MOD4-SARS-CoV-2 Spike Protein (RBD)(R319-F541).mmH (SARS-CoV-2); assay: Luminex bead binding, antibody supernatant
[13] = target: MOD5-SARS-CoV-2 Spike Protein (RBD)(R319-F541).mmH (SARS-CoV-2); assay: Luminex bead binding, antibody supernatant
[14] = target: MOD3-SARS-CoV-2 Spike Protein (RBD)(R319-F541).mmH (SARS-CoV-2); assay: Luminex bead binding, antibody supernatant
[15] = target: MOD9-SARS-CoV-2 Spike Protein (RBD)(R319-F541).mmH (SARS-CoV-2); assay: Luminex bead binding, antibody supernatant
[16] = target: MOD14-SARS-CoV-2 Spike Protein (RBD)(R319-F541).mmH (SARS-CoV-2); assay: Luminex bead binding, antibody supernatant
[17] = target: MERS.mFc (mAb2663-L1); assay: Luminex beads, supernatant
[18] = target: high affinity human FcγR3a 176Val allotype receptor (human) (UniProt P08637); assay: cell-based or functional assay
[19] = target: Bt-MERS.hFc (mAb2664-L2); assay: Luminex beads, supernatant
[20] = target: MERS.hFc (mAb2664-L1); assay: Luminex beads, supernatant
[21] = target: SARS-CoV-2 spike protein, Wuhan-Hu-1 sequence (S-wt), on VSV pseudoparticles (SARS-CoV-2) (UniProt P0DTC2); assay: cell-based or functional assay
[22] = target: Bt-SARS-CoV-2 Spike Protein (RBD) (R319-F541).mFc (column 6 of Table 8) (SARS-CoV-2); assay: Luminex beads, supernatant

Chain of high affinity human FcγR3a 176Val allotype receptor (human) (P08637 17-254 F176V): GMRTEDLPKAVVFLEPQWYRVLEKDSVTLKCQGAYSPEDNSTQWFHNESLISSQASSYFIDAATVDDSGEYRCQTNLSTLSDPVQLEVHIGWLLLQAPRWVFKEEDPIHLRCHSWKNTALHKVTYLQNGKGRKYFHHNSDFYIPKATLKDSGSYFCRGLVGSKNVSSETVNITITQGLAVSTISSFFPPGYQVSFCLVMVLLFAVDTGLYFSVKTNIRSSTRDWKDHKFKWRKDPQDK

| Substance | binding signal (MFI) [2] | binding signal (MFI) [3] | binding signal (MFI) [4] | binding signal (MFI) [5] | binding signal (MFI) [7] | binding signal (MFI) [8] | binding signal (MFI) [10] | binding signal (MFI) [11] | binding signal (MFI) [12] | binding signal (MFI) [13] | binding signal (MFI) [14] | binding signal (MFI) [15] | binding signal (MFI) [16] | MFI [17] | ADCC Mean RLU [18] | ADCC (Activity (%)) [18] | also measured |
| --- | --- | --- | --- | --- | --- | --- | --- | --- | --- | --- | --- | --- | --- | --- | --- | --- | --- |
| IgG1 Control (antibody) |  |  |  |  |  |  |  |  |  |  |  |  |  |  |  |  | ADCP Max (% ADCP), Jurkat/hCD20/SARS-CoV-2 Spike cells [1]: 10.4% |
| mAb10934 (antibody) | 30400 MFI | 6410 MFI | 27700 MFI | 27800 MFI | 32900 MFI | 30700 MFI | 30800 MFI | 29900 MFI | 31700 MFI | 6650 MFI | 25100 MFI | 31300 MFI | 28600 MFI | 77 MFI | 11700 RLU |  | binding signal (MFI) [6]: 30500 MFI; binding signal (MFI) [9]: 81 MFI |
| mAb10933 (antibody) |  |  |  |  |  |  |  |  |  |  |  |  |  | 22 MFI | 9740 RLU | 68.5% | MFI [19]: 26 MFI; MFI [20]: 21 MFI |
| mAb10987 (antibody) |  |  |  |  |  |  |  |  |  |  |  |  |  |  | 12000 RLU | 29.4% | Relative neutralization at 5 µg/ml [21]: 100% |
| mAb10989 (antibody) | 15500 MFI | 6140 MFI | 16700 MFI | 15900 MFI | 15100 MFI | 16800 MFI | 19600 MFI | 15200 MFI | 15800 MFI | 3370 MFI | 18300 MFI | 17800 MFI | 18100 MFI |  | 10200 RLU | 21.5% | MFI [22]: 16100 MFI |

From patent US20260234738A1
